Measurements published in publication PMC11677236.

Target: pyruvate kinase M2 (PKM2), endogenous (human (endogenous in A375 and G361)) (UniProt P14618)
Assay: native gel or EMSA; BN-PAGE of cell lysates with β-actin as loading control; A375 with TIPE interference, G361 with TIPE overexpression; dimer and tetramer bands of PKM2

pyruvate kinase M2 (PKM2), endogenous, P14618 1-531 (enzyme; other documents disagree on this pair), sequence (P14618 whole entry): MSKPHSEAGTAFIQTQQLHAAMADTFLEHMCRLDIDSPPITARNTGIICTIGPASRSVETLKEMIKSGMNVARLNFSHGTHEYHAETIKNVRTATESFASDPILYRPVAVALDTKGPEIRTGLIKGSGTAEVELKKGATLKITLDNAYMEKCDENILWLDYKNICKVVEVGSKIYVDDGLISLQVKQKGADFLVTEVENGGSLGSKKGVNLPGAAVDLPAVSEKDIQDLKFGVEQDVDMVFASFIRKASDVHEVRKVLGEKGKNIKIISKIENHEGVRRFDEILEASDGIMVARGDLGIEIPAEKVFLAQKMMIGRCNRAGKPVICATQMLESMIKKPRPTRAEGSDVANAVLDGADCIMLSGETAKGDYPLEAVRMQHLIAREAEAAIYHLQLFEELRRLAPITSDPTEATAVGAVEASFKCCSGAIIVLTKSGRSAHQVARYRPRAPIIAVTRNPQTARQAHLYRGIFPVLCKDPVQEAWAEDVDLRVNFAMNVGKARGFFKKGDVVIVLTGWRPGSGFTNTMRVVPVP

- stoichiometry N: 2
Substance: pyruvate kinase M2 (PKM2), endogenous, P14618 1-531 (enzyme; other documents disagree on this pair)
